Measured values: US20230050846A1, “TREATMENT OF HEPATIC AND CARDIOVASCULAR DISORDERS” (LIFESEARCH, priority 2019, published 2023)
Square brackets hold non-standard residues; d marks the D form. Ends that are not written are not given here. * marks the point of attachment. Biotin = O=C1N[C@H]2[C@H](CS[C@H]2CCCCC(=O)*)N1; Palmitoyl = CCCCCCCCCCCCCCCC(=O)*; AEEA = NCCOCCOCC(=O)O

Assays:
[1] = biological target: Human F1Fo-ATPase purified from HepG2 cells (human); assay: SPR (BIAcore T200), biotinylated peptide immobilised on streptavidin chip, purified F1Fo-ATPase as analyte, single-cycle kinetics
[2] = biological target: Human F1Fo-ATPase purified from HepG2 cells (human); assay: SPR (BIAcore T200), single-cycle kinetics; peptide immobilised as ligand on streptavidin chip, F1Fo-ATPase as analyte injected at 31.25, 62.5, 125, 250 and 500 nM
[3] = biological target: Human F1Fo-ATPase purified from HepG2 cells (human); assay: SPR (BIAcore T200), single-cycle kinetics; peptide immobilised as ligand on NTA chip, F1Fo-ATPase as analyte injected at 31.25, 62.5, 125, 250 and 500 nM
[4] = biological target: Human F1Fo-ATPase purified from HepG2 cells (human); assay: SPR (BIAcore T200), His-tagged peptide immobilised on NTA chip, purified F1Fo-ATPase as analyte, single-cycle kinetics

Binder	Kd [1]	Kd [2]	koff [2]	koff [3]	Kd [4]
Ac-RGAGSIREAGGAFGKREQAEEERYFRAQSREK(Palmitoyl)[AEEA]K(Biotin)-NH2 (SMILES CCCCCCCCCCCCCCCC(=O)NCCCC[C@H](NC(=O)[C@H](CCC(=O)O)NC(=O)[C@H](CCCNC(=N)N)NC(=O)[C@H](CO)NC(=O)[C@H](CCC(N)=O)NC(=O)[C@H](C)NC(=O)[C@H](CCCNC(=N)N)NC(=O)[C@H](Cc1ccccc1)NC(=O)[C@H](Cc1ccc(O)cc1)NC(=O)[C@H](CCCNC(=N)N)NC(=O)[C@H](CCC(=O)O)NC(=O)[C@H](CCC(=O)O)NC(=O)[C@H](CCC(=O)O)NC(=O)[C@H](C)NC(=O)[C@H](CCC(N)=O)NC(=O)[C@H](CCC(=O)O)NC(=O)[C@H](CCCNC(=N)N)NC(=O)[C@H](CCCCN)NC(=O)CNC(=O)[C@H](Cc1ccccc1)NC(=O)[C@H](C)NC(=O)CNC(=O)CNC(=O)[C@H](C)NC(=O)[C@H](CCC(=O)O)NC(=O)[C@H](CCCNC(=N)N)NC(=O)[C@@H](NC(=O)[C@H](CO)NC(=O)CNC(=O)[C@H](C)NC(=O)CNC(=O)[C@H](CCCNC(=N)N)NC(C)=O)[C@@H](C)CC)C(=O)NCCOCCOCC(=O)N[C@@H](CCCCNC(=O)CCCC[C@@H]1SC[C@@H]2NC(=O)N[C@@H]21)C(N)=O) [Formula (II)-Biotin: CH3CO-[SEQ ID NO: 1]-K-[palmitoyl]-AEEAc-K-[biotinyl]-NH2]	4.45 nM	3 nM	6.85e-05 s⁻¹		
Ac-RGAGSIREAGGAFGKREQAEEERYFRAQSREHHHHHH [Formula (I)-His-tag: CH3CO-[SEQ ID NO: 1]-HHHHHH]				0.000643 s⁻¹	19 nM
